For this assay, the target named is Aβ1-40 peptide (natural β-amyloid peptide, β-AP1-40). Briefly: cell-based or functional assay.
Aβ1-40 peptide (natural β-amyloid peptide, β-AP1-40), sequence (peptide, as listed by the source limits assumed, form in doubt): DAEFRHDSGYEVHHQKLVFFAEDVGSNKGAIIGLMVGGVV

Consider “PPI 1320: TFA·H-(lf-[F5]f-vl)-NH2 (peptide)”, for which the Nucleation assay data (Δlag), 0.3 µM compound (fold of control lag time) worked out at 1; the Nucleation assay data (Δlag), 1 µM compound (fold of control lag time) amounted to 3; the Nucleation assay data (Δlag), 3 µM compound (fold of control lag time) was more than 5.

In turn, “PPI-1318: TFA·H-(lf-D-Cha-vl)-NH2 (peptide)” gave a Nucleation assay data (Δlag), 0.3 µM compound (fold of control lag time) of 1; a Nucleation assay data (Δlag), 1 µM compound (fold of control lag time) of 2; a Nucleation assay data (Δlag), 3 µM compound (fold of control lag time) of more than 5.

“PPI 992: TFA·H-(lvffa)-isopropylamide (peptide)” came in with a Nucleation assay Δlag, 1.25 µM compound (fold of control lag time) of 1; a Nucleation assay Δlag, 2.5 µM compound (fold of control lag time) of 1; a Nucleation assay Δlag, 5 µM compound (fold of control lag time) of 3.

“PPI 969: TFA·N-ethyl-(Gaffvl)-NH2 (peptide)”: the Nucleation assay Δlag, 1.25 µM compound (fold of control lag time) stood at 3; the Nucleation assay Δlag, 2.5 µM compound (fold of control lag time) is more than 5; the Nucleation assay Δlag, 5 µM compound (fold of control lag time) was more than 5.

Consider PPI 1013: TFA·H-(Glvffl)-NH2 (peptide), for which the Nucleation assay Δlag, 0.6 µM compound (note #) (fold of control lag time) worked out at 2; the Nucleation assay Δlag, 1.25 µM compound (note #) (fold of control lag time) is more than 3; the Nucleation assay Δlag, 2.5 µM compound (note #) (fold of control lag time) turned out to be 2.

As to “PPI 1125: 2 TFA·H-lvf-NH-NH-fvl-H (peptide)”, the Nucleation assay data (Δlag), 0.6 µM compound (note *) (fold of control lag time) turned out to be 2; the Nucleation assay data (Δlag), 1.25 µM compound (note *) (fold of control lag time) was more than 2.5; the Nucleation assay data (Δlag), 2.5 µM compound (note *) (fold of control lag time) was more than 2.5.

“PPI-1019: TFA•N-methyl-(lvffl)-NH2 (peptide)” displayed a Nucleation assay data (Δlag), 0.6 µM compound (note *) (fold of control lag time) of 2; a Nucleation assay data (Δlag), 1.25 µM compound (note *) (fold of control lag time) of more than 2.5; a Nucleation assay data (Δlag), 2.5 µM compound (note *) (fold of control lag time) of more than 2.5.

Consider “PPI 1007: TFA·N,N-dimethyl-(lvffl)-NH2 (peptide)”, for which the Nucleation assay Δlag, 0.3 µM compound (note *) (fold of control lag time) worked out at 3; the Nucleation assay Δlag, 0.6 µM compound (note #) (fold of control lag time) is 1.5; the Nucleation assay Δlag, 1 µM compound (note *) (fold of control lag time) stood at 4; the Nucleation assay Δlag, 1.25 µM compound (note #) (fold of control lag time) came out at 1.5. Further, the Nucleation assay Δlag, 2.5 µM compound (note #) (fold of control lag time) is 1.5 and the Nucleation assay Δlag, 3 µM compound (note *) (fold of control lag time) was found to be 4.

These data come from patent publication EP1870419A2, “Modulators of beta-amyloid peptide aggregation comprising D-amino acids” (Praecis Pharmaceuticals Incorporated, priority 1999, dated 2000).
